Results taken from patent US20200199225A1.

Target: BCRs exhibiting the target structure on primary B-cells from the blood of leukemia patients
Assay: cell-based or functional assay

B1: AVA-mAb01 (antibody, V domains shown)
VH: QVQLQQSGPGLVQPSQSLSITCTVSGFSLTSYGIHWVRQSPGKGLEWLGVIWRGGGTDSNAAFMSRLSITKDNSKSQVFFKMNSLQADDTAIYYCARSRYDEEESMNYWGQGTSVTVSS
VL: QIVLTQSPASLSASVGETVTITCRASGNIHSYLAWYQQKQGKSPQLLVYNAKTLADGVPSRFSGSGSGTQYSLKINSLQPEDFGSYYCQHFWNTPPTFGAGTKLELK
  lymphocyte count in the flow-through after double purification over LS columns with antibody-conjugated MACS MicroBeads (start: 80,000 lymphocytes/µl) (lymphocytes/µl): < 5000
